# In patent publication US20220226425A1, “METHOD OF TREATING MELANOCORTIN-4 RECEPTOR PATHWAY-ASSOCIATED DISORDERS” (RHYTHM PHARMACEUTICALS, INC., priority 2015, published 2022):
# Molecular target: melanocortin 5 receptor (human) (UniProt P33032)
# Experiment: cell-based or functional assay
# Sequence of melanocortin 5 receptor (human) (P33032 whole entry): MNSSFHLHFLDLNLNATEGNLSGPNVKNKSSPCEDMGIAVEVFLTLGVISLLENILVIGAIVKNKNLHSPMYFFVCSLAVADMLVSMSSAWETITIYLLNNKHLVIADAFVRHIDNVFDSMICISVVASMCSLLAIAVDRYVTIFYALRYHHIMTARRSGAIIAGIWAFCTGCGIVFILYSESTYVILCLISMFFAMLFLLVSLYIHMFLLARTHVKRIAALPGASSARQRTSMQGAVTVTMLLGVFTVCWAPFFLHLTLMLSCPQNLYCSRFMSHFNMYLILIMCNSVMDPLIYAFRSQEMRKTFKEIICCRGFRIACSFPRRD
substance,measurement,value
RM-493 (peptide),"EC-50 (nM), cAMP accumulation",1680 nM
